Data taken from the supplement of paper PMC9112550, “Optimization of the antimicrobial peptide Bac7 by deep mutational scanning” (BMC Biology, 2022).

Test system: Escherichia coli TOP10
Assay: shrunken log2 fold change of peptide-encoding DNA abundance (4.5 h post-induction vs induction); higher = less antimicrobial activity (less host growth inhibition)
Details: time post-induction: 4.5 h; library: site-saturation at positions 5, 18, 19, 20
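Note: peptides expressed intracellularly from a pBAD plasmid library in pooled LB shake-flask culture, induced with 0.3% L-arabinose, DNA abundance read by NGS, three biological replicates, DESeq2 with apeglm shrinkage.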

RRIRIRPPRLPRPRPRPILIPRP
shrunken log2 fold change: -0.097

RRIRGRPPRLPRPRPRPKCDPRP
shrunken log2 fold change: 0.812

RRIRPRPPRLPRPRPRPHNLPRP
shrunken log2 fold change: -0.131

RRIRCRPPRLPRPRPRPNHSPRP
shrunken log2 fold change: -0.936

RRIRERPPRLPRPRPRPMWRPRP
shrunken log2 fold change: -0.0079

RRIRWRPPRLPRPRPRPMLLPRP
shrunken log2 fold change: 0.259

RRIRGRPPRLPRPRPRPDYKPRP
shrunken log2 fold change: -0.0972

RRIRKRPPRLPRPRPRPEVVPRP
shrunken log2 fold change: 0.016

RRIRFRPPRLPRPRPRPIYIPRP
shrunken log2 fold change: -0.832

RRIRGRPPRLPRPRPRPDDNPRP
shrunken log2 fold change: 0.484

RRIRGRPPRLPRPRPRPYRDPRP
shrunken log2 fold change: 0.528

RRIRKRPPRLPRPRPRPKFLPRP
shrunken log2 fold change: 0.119

RRIRIRPPRLPRPRPRPDRMPRP
shrunken log2 fold change: -0.0164

RRIRSRPPRLPRPRPRPNNDPRP
shrunken log2 fold change: -0.503

RRIRVRPPRLPRPRPRPWNAPRP
shrunken log2 fold change: -0.0893

RRIRKRPPRLPRPRPRPTFNPRP
shrunken log2 fold change: -0.344

RRIRPRPPRLPRPRPRPTMDPRP
shrunken log2 fold change: -0.125

RRIRIRPPRLPRPRPRPIKIPRP
shrunken log2 fold change: -0.0548

RRIRTRPPRLPRPRPRPGVIPRP
shrunken log2 fold change: 0.0978

RRIRQRPPRLPRPRPRPPFLPRP
shrunken log2 fold change: 0.186

RRIRYRPPRLPRPRPRPYQHPRP
shrunken log2 fold change: -1.87

RRIRVRPPRLPRPRPRPWFWPRP
shrunken log2 fold change: 0.121

RRIRCRPPRLPRPRPRPICFPRP
shrunken log2 fold change: -0.241

RRIRPRPPRLPRPRPRPTWKPRP
shrunken log2 fold change: -0.0108

RRIRYRPPRLPRPRPRPFEDPRP
shrunken log2 fold change: -0.057

RRIRERPPRLPRPRPRPNQQPRP
shrunken log2 fold change: -0.112

RRIRGRPPRLPRPRPRPPDGPRP
shrunken log2 fold change: 1.99

RRIRDRPPRLPRPRPRPWSWPRP
shrunken log2 fold change: 0.215

RRIRLRPPRLPRPRPRPEQHPRP
shrunken log2 fold change: 0.243

RRIRCRPPRLPRPRPRPRYHPRP
shrunken log2 fold change: -0.685

RRIRTRPPRLPRPRPRPSHAPRP
shrunken log2 fold change: -0.345

RRIRRRPPRLPRPRPRPYEMPRP
shrunken log2 fold change: -0.0957

RRIRNRPPRLPRPRPRPDCMPRP
shrunken log2 fold change: 0.113

RRIRERPPRLPRPRPRPWCCPRP
shrunken log2 fold change: -0.244

RRIRIRPPRLPRPRPRPPEIPRP
shrunken log2 fold change: -0.578

RRIRERPPRLPRPRPRPGVQPRP
shrunken log2 fold change: -0.351

RRIRPRPPRLPRPRPRPIWMPRP
shrunken log2 fold change: 0.0829

RRIRLRPPRLPRPRPRPRKNPRP
shrunken log2 fold change: 0.0496

RRIRQRPPRLPRPRPRPSPCPRP
shrunken log2 fold change: -0.0648

RRIRVRPPRLPRPRPRPMTFPRP
shrunken log2 fold change: -0.0219

RRIRWRPPRLPRPRPRPWKTPRP
shrunken log2 fold change: 0.149

RRIRHRPPRLPRPRPRPVTWPRP
shrunken log2 fold change: -0.268

RRIRCRPPRLPRPRPRPSHQPRP
shrunken log2 fold change: -1.04

RRIRYRPPRLPRPRPRPRRNPRP
shrunken log2 fold change: -0.268

RRIRMRPPRLPRPRPRPSQFPRP
shrunken log2 fold change: 0.379

RRIRNRPPRLPRPRPRPQYRPRP
shrunken log2 fold change: 0.576

RRIRLRPPRLPRPRPRPPPIPRP
shrunken log2 fold change: 0.935

RRIRNRPPRLPRPRPRPFIPPRP
shrunken log2 fold change: -0.0923

RRIRRRPPRLPRPRPRPVCYPRP
shrunken log2 fold change: 0.103

RRIRMRPPRLPRPRPRPKKQPRP
shrunken log2 fold change: 0.0673

RRIRCRPPRLPRPRPRPTAHPRP
shrunken log2 fold change: 0.181

RRIRQRPPRLPRPRPRPHPGPRP
shrunken log2 fold change: 0.125

RRIRFRPPRLPRPRPRPAEAPRP
shrunken log2 fold change: 0.254

RRIRMRPPRLPRPRPRPFQRPRP
shrunken log2 fold change: -0.0335

RRIRTRPPRLPRPRPRPMLKPRP
shrunken log2 fold change: -0.106

RRIRSRPPRLPRPRPRPFYMPRP
shrunken log2 fold change: -0.561

RRIRDRPPRLPRPRPRPQLLPRP
shrunken log2 fold change: 0.206

RRIRQRPPRLPRPRPRPCKAPRP
shrunken log2 fold change: -0.218

RRIRPRPPRLPRPRPRPMGVPRP
shrunken log2 fold change: 0.0399

RRIRYRPPRLPRPRPRPVWRPRP
shrunken log2 fold change: 0.119

RRIRYRPPRLPRPRPRPLDEPRP
shrunken log2 fold change: 3.09

RRIRHRPPRLPRPRPRPPVSPRP
shrunken log2 fold change: -0.0862

RRIRSRPPRLPRPRPRPTGIPRP
shrunken log2 fold change: -0.0906

RRIRKRPPRLPRPRPRPPCDPRP
shrunken log2 fold change: 0.415

RRIRARPPRLPRPRPRPEELPRP
shrunken log2 fold change: 0.499

RRIRARPPRLPRPRPRPQHMPRP
shrunken log2 fold change: -0.414

RRIRLRPPRLPRPRPRPSQAPRP
shrunken log2 fold change: 0.182

RRIRWRPPRLPRPRPRPEEQPRP
shrunken log2 fold change: 0.149

RRIRLRPPRLPRPRPRPIWDPRP
shrunken log2 fold change: -0.0847

RRIRRRPPRLPRPRPRPAIWPRP
shrunken log2 fold change: 0.356

RRIRSRPPRLPRPRPRPKYEPRP
shrunken log2 fold change: -0.147

RRIRMRPPRLPRPRPRPCCLPRP
shrunken log2 fold change: 0.273

RRIRNRPPRLPRPRPRPKHWPRP
shrunken log2 fold change: 0.0916

RRIRQRPPRLPRPRPRPAIAPRP
shrunken log2 fold change: 0.0382

RRIRFRPPRLPRPRPRPRCIPRP
shrunken log2 fold change: -0.606

RRIRCRPPRLPRPRPRPVWEPRP
shrunken log2 fold change: 0.176

RRIRWRPPRLPRPRPRPYCIPRP
shrunken log2 fold change: -0.179

RRIRFRPPRLPRPRPRPRCKPRP
shrunken log2 fold change: 0.0452

RRIRERPPRLPRPRPRPSWVPRP
shrunken log2 fold change: -0.178

RRIRIRPPRLPRPRPRPEPCPRP
shrunken log2 fold change: -0.057

RRIRKRPPRLPRPRPRPKFCPRP
shrunken log2 fold change: 0.0649

RRIRGRPPRLPRPRPRPFDYPRP
shrunken log2 fold change: -0.145

RRIRMRPPRLPRPRPRPAEHPRP
shrunken log2 fold change: -0.0575

RRIRCRPPRLPRPRPRPEMSPRP
shrunken log2 fold change: -0.129

RRIRVRPPRLPRPRPRPCRNPRP
shrunken log2 fold change: -0.0211

RRIRLRPPRLPRPRPRPLNKPRP
shrunken log2 fold change: -0.264

RRIRLRPPRLPRPRPRPQSAPRP
shrunken log2 fold change: -0.372

RRIRQRPPRLPRPRPRPPLVPRP
shrunken log2 fold change: 0.931

RRIRSRPPRLPRPRPRPHYDPRP
shrunken log2 fold change: -0.735

RRIRFRPPRLPRPRPRPPEDPRP
shrunken log2 fold change: 0.357

RRIRPRPPRLPRPRPRPVHNPRP
shrunken log2 fold change: -0.038

RRIRSRPPRLPRPRPRPPWFPRP
shrunken log2 fold change: 0.238

RRIRYRPPRLPRPRPRPYTTPRP
shrunken log2 fold change: -0.554

RRIRTRPPRLPRPRPRPICLPRP
shrunken log2 fold change: -0.14

RRIRHRPPRLPRPRPRPGFSPRP
shrunken log2 fold change: -0.236

RRIRSRPPRLPRPRPRPNIGPRP
shrunken log2 fold change: -0.283

RRIRTRPPRLPRPRPRPVQDPRP
shrunken log2 fold change: -0.00469

RRIRNRPPRLPRPRPRPSHVPRP
shrunken log2 fold change: -0.0765

RRIRYRPPRLPRPRPRPRAEPRP
shrunken log2 fold change: -0.162

RRIRARPPRLPRPRPRPAAYPRP
shrunken log2 fold change: 0.412

RRIRLRPPRLPRPRPRPYMDPRP
shrunken log2 fold change: -0.0681

RRIRQRPPRLPRPRPRPPHRPRP
shrunken log2 fold change: 0.445

RRIRRRPPRLPRPRPRPPPDPRP
shrunken log2 fold change: 1.35

RRIRTRPPRLPRPRPRPGVHPRP
shrunken log2 fold change: -0.055

RRIRQRPPRLPRPRPRPHSCPRP
shrunken log2 fold change: -0.194

RRIRHRPPRLPRPRPRPNRKPRP
shrunken log2 fold change: 0.0857

RRIRRRPPRLPRPRPRPMFNPRP
shrunken log2 fold change: -0.146

RRIRSRPPRLPRPRPRPRIRPRP
shrunken log2 fold change: -0.0466

RRIRKRPPRLPRPRPRPKINPRP
shrunken log2 fold change: -0.116
